Source: article PMC3315512

Legend:
[1] = molecular target: CeHsc70-Δ545 (half-lid deletion of CeHsc70) (C. elegans) (UniProt P09446)
[2] = molecular target: CeHsc70-Δ512 (lidless CeHsc70) (C. elegans) (UniProt P09446)
Chain of CeHsc70-Δ512 (lidless CeHsc70) (C. elegans) (P09446 1-512, stated change not applied): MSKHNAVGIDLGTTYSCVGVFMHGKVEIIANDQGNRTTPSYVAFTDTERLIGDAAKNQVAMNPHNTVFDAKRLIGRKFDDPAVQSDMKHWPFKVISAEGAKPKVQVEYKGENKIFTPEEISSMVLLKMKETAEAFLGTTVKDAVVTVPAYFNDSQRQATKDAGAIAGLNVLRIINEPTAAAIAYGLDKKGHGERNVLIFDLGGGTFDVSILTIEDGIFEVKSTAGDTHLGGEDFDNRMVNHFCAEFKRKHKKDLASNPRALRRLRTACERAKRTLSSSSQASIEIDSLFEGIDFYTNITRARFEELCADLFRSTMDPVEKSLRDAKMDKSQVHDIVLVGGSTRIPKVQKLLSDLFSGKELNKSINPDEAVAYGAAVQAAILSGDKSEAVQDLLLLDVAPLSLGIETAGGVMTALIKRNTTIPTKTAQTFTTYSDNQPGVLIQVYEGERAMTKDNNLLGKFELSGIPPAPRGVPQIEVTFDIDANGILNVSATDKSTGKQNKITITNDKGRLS

Chain of DNJ-13 (C. elegans, unlabelled), Q20774 1-331 (natural protein) (Q20774 entry or part of it): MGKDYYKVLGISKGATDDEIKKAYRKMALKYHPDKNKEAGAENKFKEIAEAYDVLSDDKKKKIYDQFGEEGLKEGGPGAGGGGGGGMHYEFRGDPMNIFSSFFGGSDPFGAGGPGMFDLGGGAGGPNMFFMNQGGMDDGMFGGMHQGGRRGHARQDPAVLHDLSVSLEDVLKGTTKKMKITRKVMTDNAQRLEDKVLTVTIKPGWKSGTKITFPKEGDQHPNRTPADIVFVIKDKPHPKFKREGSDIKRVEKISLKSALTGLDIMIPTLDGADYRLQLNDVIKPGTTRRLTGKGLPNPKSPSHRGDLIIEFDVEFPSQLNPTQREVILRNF
Chain of CeHsc70-Δ545 (half-lid deletion of CeHsc70) (C. elegans) (P09446 1-545, stated change not applied): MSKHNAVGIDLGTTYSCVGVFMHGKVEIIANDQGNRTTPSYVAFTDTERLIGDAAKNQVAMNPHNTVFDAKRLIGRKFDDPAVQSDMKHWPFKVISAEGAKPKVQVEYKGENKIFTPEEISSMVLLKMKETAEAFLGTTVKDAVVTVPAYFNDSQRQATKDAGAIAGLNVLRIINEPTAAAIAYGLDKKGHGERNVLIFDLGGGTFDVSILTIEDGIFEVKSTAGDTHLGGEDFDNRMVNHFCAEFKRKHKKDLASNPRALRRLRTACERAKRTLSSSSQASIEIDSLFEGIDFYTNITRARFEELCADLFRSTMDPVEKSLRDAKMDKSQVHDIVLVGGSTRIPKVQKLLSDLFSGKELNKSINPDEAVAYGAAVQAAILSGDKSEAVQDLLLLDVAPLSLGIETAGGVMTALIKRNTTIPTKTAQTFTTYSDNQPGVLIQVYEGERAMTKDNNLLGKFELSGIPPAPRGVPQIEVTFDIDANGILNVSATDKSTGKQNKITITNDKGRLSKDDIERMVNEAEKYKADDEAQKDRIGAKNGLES

“DNJ-13 (C. elegans, unlabelled), Q20774 1-331 (natural protein)” showed an apparent KD of DNJ-13 from titration of the steady-state ATPase activity, standard buffer, 25°C [1] of 4200 nM and an apparent KD of DNJ-13 from titration of the steady-state ATPase activity of 1 µM CeHsc70-Δ512 in the presence of 2 µM BAG-1, standard buffer, 25°C [2] of 1200 nM.
